# According to patent US20140271623A1:
# Biological target: C1q (Complement Technologies, Tyler, Tex.) (UniProt P02745)
# Experiment: cell-based or functional assay
# Chain of UniProt P02745 (P02745 23-245 limits assumed, chain 1 of 3): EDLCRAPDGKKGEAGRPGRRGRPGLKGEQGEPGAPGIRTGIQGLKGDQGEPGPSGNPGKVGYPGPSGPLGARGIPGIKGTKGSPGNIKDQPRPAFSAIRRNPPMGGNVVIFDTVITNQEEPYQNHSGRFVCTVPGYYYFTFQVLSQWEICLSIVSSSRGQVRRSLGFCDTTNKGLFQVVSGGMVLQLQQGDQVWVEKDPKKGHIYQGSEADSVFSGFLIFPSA
# Chain of UniProt P02745 (P02746 28-253 limits assumed, chain 2 of 3, further chain): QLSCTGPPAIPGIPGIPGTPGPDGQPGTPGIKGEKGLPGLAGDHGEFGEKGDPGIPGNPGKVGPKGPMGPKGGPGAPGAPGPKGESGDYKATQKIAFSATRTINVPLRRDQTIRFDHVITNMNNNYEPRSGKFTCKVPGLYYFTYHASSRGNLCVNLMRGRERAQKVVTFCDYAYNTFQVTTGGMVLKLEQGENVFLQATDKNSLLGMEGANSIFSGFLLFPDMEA
# Chain of UniProt P02745 (P02747 29-245 limits assumed, chain 3 of 3, further chain): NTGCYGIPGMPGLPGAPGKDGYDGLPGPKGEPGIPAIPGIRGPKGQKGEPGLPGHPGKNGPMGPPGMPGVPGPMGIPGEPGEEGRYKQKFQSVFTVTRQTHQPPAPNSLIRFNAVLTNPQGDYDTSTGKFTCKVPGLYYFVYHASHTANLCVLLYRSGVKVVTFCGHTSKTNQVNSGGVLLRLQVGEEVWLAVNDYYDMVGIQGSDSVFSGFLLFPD
substance,measurement,value
"Anti-CD38 antibody (005), collected K2 isoform (two heavy-chain C-terminal lysines per antibody)",EC50 values [µg/mL] for C1q requirement for induction of CDC of Daudi cells,4.8 µg/mL
"Anti-CD38 antibody (005), unfractionated preparation after carboxypeptidase B treatment",EC50 values [µg/mL] for C1q requirement for induction of CDC of Daudi cells,0.8 µg/mL
same,"efficacy of C1q utilization, fold improvement by carboxypeptidase B treatment",< 2 fold
"Anti-CD38 antibody (005), unfractionated preparation isolated from hybridoma supernatant",EC50 values [µg/mL] for C1q requirement for induction of CDC of Daudi cells,1.3 µg/mL
